Data on four molecules can be found in US20040214255A1 (MYRIAD GENETICS, published 2004).

T1: 14-3-3-Zeta, amino acids 1-200 (human, UniProt P63104 1-200)
T1 sequence: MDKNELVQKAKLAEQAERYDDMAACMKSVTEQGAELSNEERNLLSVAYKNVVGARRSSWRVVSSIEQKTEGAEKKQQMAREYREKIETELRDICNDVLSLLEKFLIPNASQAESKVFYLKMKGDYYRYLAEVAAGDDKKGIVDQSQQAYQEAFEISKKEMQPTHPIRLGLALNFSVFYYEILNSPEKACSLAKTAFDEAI

T2: Beta-catenin, amino acids 579-782 (human, UniProt P35222 579-781)
T2 construct: range 579-782
T2 sequence (looked up): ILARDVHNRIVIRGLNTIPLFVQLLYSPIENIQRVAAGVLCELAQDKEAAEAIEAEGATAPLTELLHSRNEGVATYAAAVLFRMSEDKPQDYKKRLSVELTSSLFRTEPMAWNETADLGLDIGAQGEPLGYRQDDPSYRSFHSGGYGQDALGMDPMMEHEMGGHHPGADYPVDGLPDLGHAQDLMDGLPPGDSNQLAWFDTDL

T3: Alpha-SNAP, amino acids 36-241 (human, UniProt P54920 36-241)
T3 construct: range 36-241
T3 sequence (looked up): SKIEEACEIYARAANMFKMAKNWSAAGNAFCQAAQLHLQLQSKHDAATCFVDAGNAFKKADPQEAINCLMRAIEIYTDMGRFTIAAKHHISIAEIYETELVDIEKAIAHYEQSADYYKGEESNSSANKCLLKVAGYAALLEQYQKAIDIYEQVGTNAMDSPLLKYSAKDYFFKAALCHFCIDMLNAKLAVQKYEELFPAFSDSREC

B1: Tankyrase, amino acids 603-725 (enzyme, human, UniProt O95271 603-725, looked up)
chain: HLQTCRLLLSYGSDPSIISLQGFTAAQMGNEAVQQILSESTPIRTSDVDYRLLEASKAGDLETVKQLCSSQNVNCRDLEGRHSTPLHFAAGYNRVSVVEYLLHHGADVHAKDKGGLVPLHNAC
notes: range 603-725
B2: Insulin-Regulated Membrane-Spanning Aminopeptidase (IRAP), amino acids 750-1026 (enzyme, human, UniProt Q9UIQ6 750-1025, looked up)
chain: FDLINYLGNENHTAPITEALFQTDLIYNLLEKLGYMDLASRLVTRVFKLLQNQIQQQTWTDEGTPSMRELRSALLEFACTHNLGNCSTTAMKLFDDWMASNGTQSLPTDVMTTVFKVGAKTDKGWSFLLGKYISIGSEAEKNKILEALASSEDVRKLYWLMKSSLNGDNFRTQKLSFIIRTVGRHFPGHLLAWDFVKENWNKLVQKFPLGSYTIQNIVAGSTYLFSTKTHLSEVQAFFENQSEATFRLRCVQEALEVIQLNIQWMEKNLKSLTWWL
notes: range 750-1026; also called C-terminal portion of IRAP
B3: PP5, amino acids 1-150 (enzyme, human, UniProt P53041 1-150, looked up)
chain: MAMAEGERTECAEPPRDEPPADGALKRAEELKTQANDYFKAKDYENAIKFYSQAIELNPSNAIYYGNRSLAYLRTECYGYALGDATRAIELDKKYIKGYYRRAASNMALGKFRAALRDYETVVKVKPHDKDAKMKYQECNKIVKQKAFER
notes: range 1-150; also called Protein phosphatase 5

Experiment [1] concerns the target B3. Description: yeast two-hybrid. From the text: (§1) The new construct was selected directly in the yeast strain PNY200 for its ability to drive tryptophane synthesis (genotype of this strain: […] trp1-901 leu2-3,112 ura3-52 his3-200 ade2 gal4Δ gal80). In these yeast cells, the bait was produced as a C-terminal fusion protein with the DNA binding domain of the transcription factor Ga14 (amino acids 1 to 147). Prey libraries were transformed into the yeast strain BK100 (genotype of this strain: MATα trp1-901 leu2-3,112 ura3-52 his3-200 gal4Δ gal80 LYS2::GAL-HIS3 GAL2-ADE2 met2::GAL7-lacZ), and selected for the ability to drive leucine synthesis. In these yeast cells, each cDNA was expressed as a fusion protein with the transcription activation domain of the transcription factor Ga14 (amino acids 768 to 881) and a 9 amino acid hemagglutinin epitope tag. PNY200 cells (MATα mating type), expressing the bait, were then mated with BK100 cells (MATa mating type), expressing prey proteins from a prey library. The resulting diploid yeast cells expressing proteins interacting with the bait protein were selected for the ability to synthesize tryptophan, leucine, histidine, and adenine. DNA was prepared from each clone, transformed by electroporation into E. coli strain KC8 (Clontech KC8 electrocompetent cells, Catalog No. C2023-1), and the cells were selected on ampicillin-containing plates in the absence of either tryptophane (selection for the bait plasmid) or leucine (selection for the library plasmid). DNA for both plasmids was prepared and sequenced by the dideoxynucleotide chain termination method. The identity of the bait cDNA insert was confirmed and the cDNA insert from the prey library plasmid was identified using the BLAST program to search against public nucleotide and protein databases. Plasmids from the prey library were then individually transformed into yeast cells together with a plasmid driving the synthesis of lamin and 5 other test proteins, respectively, fused to the Ga14 DNA binding domain. Clones that gave a positive signal in the β-galactosidase assay were considered false-positives and discarded. […] Clones that gave a positive signal in the β-galactosidase assay were considered true positives.

Experiment [2] has as its target T4, β-Spectrin, amino acids 1592-2096 (human, UniProt Q01082 1592-2096).
T4 construct: range 1592-2096; also called non-erythrocytic beta-spectrin; beta spectrin
Description: yeast two-hybrid.
Description: as §1

The target in experiment [3] is T5, HSP89, amino acids 537-700 (human, UniProt P07900 537-700).
T5 construct: range 537-700
Description: yeast two-hybrid.
Description: as §1

Experiment [4] has as its target T1, 14-3-3-Zeta, amino acids 1-200. Description: yeast two-hybrid; GLUT4 463-510 with 14-3-3-Zeta 1-200. From the text:
The new construct was selected directly in the yeast strain PNY200 for its ability to drive tryptophane synthesis (genotype of this strain: MATα trp1-901 leu2-3,112 ura3-52 his3-200 ade2 gal4Δ gal80). In these yeast cells, the bait was produced as a C-terminal fusion protein with the DNA binding domain of the transcription factor Ga14 (amino acids 1 to 147). Prey libraries were transformed into the yeast strain BK100 (genotype of this strain: MATα trp1-901 leu2-3,112 ura3-52 his3-200 gal4Δ gal80 LYS2::GAL-HIS3 GAL2-ADE2 met2::GAL7-lacZ), and selected for the ability to drive leucine synthesis. In these yeast cells, each cDNA was expressed as a fusion protein with the transcription activation domain of the transcription factor Ga14 (amino acids 768 to 881) and a 9 amino acid hemagglutinin epitope tag. PNY200 cells (MATα mating type), expressing the bait, were then mated with BK100 cells (MATa mating type), expressing prey proteins from a prey library. The resulting diploid yeast cells expressing proteins interacting with the bait protein were selected for the ability to synthesize tryptophan, leucine, histidine, and adenine. […]

Experiment [5] concerns the target T2, Beta-catenin, amino acids 579-782. Briefly: yeast two-hybrid.
Description: as §1

Experiment [6] deals with T6, Clone C-193 (CARP), amino acids 21-302 (human, UniProt Q15327 21-302).
T6 construct: range 21-302
Description: yeast two-hybrid.
Description: as §1

In experiment [7] the target is T3, Alpha-SNAP, amino acids 36-241. Description: yeast two-hybrid.
Description: as §1

T5 sequence (P07900 537-700): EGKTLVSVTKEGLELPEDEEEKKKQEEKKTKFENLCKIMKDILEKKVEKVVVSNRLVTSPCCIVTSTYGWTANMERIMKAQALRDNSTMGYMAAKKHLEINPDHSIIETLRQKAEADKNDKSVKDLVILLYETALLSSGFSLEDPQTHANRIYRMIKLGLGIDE
T4 sequence (Q01082 1592-2096): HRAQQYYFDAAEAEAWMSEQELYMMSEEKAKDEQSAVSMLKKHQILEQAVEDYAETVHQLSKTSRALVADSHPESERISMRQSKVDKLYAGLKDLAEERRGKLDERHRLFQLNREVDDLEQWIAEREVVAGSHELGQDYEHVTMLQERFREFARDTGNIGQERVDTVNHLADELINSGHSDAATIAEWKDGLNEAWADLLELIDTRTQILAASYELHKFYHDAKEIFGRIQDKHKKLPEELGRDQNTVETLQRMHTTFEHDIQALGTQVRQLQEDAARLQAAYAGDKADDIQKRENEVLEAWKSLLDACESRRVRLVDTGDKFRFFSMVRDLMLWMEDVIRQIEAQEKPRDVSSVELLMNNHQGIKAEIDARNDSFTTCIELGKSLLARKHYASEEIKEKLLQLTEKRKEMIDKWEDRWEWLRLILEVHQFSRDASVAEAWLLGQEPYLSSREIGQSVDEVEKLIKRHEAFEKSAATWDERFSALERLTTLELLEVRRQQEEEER
T6 sequence (Q15327 21-302 limits assumed): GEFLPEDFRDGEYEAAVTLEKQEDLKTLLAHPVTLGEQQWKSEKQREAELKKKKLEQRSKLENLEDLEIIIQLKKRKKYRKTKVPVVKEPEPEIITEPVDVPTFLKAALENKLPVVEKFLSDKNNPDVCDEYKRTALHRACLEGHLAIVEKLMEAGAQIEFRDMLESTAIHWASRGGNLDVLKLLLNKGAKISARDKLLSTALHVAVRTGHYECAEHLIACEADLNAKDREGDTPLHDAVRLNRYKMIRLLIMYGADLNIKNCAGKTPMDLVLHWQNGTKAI

On to B1, for which, in experiment [1], the binding result is on record as “binds”.

Regarding B2, the binding result in experiment [2] is “binds”.

For the molecule B3, the binding result in experiment [3] is “binds”.

As for FTFLRVPETRGRTFDQISAAFHRTPSLLEQEVKPSTELEYLGPDEND (other, human, UniProt P14672 463-509, looked up, range 463-510; also called GLUT4; Glut4) [Glucose Transporter 4, amino acids 463-510], the binding result in experiment [4], in experiment [5], in experiment [6] and in experiment [7] was “binds” each time.
